Article PMC3244695 (2012)

Molecular target: T1, NgR1 (Mus musculus, UniProt Q99PI8)
T1 chain: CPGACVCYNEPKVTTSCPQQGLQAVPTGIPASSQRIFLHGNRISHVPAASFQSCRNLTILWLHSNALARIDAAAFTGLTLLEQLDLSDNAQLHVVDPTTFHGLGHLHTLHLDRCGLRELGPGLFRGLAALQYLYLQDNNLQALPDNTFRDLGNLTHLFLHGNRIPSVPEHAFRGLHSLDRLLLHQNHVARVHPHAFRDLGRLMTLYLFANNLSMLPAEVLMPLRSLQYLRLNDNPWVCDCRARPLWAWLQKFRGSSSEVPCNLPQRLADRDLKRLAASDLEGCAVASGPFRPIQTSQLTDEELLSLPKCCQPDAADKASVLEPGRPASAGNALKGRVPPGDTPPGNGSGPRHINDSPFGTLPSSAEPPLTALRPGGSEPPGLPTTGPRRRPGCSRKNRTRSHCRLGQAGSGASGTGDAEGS
Experiment: AP-fusion cell-surface saturation binding

Kd: ~6.8 nM
B1: LOTUS (Crtac1B) 29-602 (antibody)
chain: SQRAEPMFTAVTNSVLPPDYDSNPTQLNYGVAVTDVDHDGDFEIVVAGYTGPNLVLKYNRAQNRLVNIAVDERSSPYYALRDRQGNAIGVTACDIDGDGREEIYFLNTNNAFSGVATYTDKLFKFRNNRWEDILSDDVNVARGVASLFAGRSVACVDRTGSGRYSIYIANYAYGDVGPDALIEMDPEASDLSRGILALRDVAAEAGVSKYTAGRGVSVGPILSSSASDIFCDNENGPNFLFHNQGNGTFVDTAASAGVDDPHQHGRGVALADFNRDGKVDIVYGNWNGPHRLYLQMSAHGKVRFRDIASPKFSTPSPVRTVIAADFDNDQELEVFFNNIAYRSSSANRLFRVIRREHGDPLIEELNPGDALEPEGRGTGGVVTDFDGDGMLDLILSHGESMAQPLSVFRGNQGFSNNWLRVVPRTRFGAFARGAKVVLYTKKSGAHLRIIDGGSGYLCEMEPVAHFGLGRDEASSVEVTWPDGKMVSRSVASEEMNSVLEILYPQDEDKLQNTAPLECGQGFSQQDNGHCMDTNECIQFPFVCPRDKPVCVNTYGSYRCRTNKRCNRGYEPNED
modifications: alkaline phosphatase fusion of LOTUS
